Laboratory results published in paper PMC4165446.

What was measured:
Assay in all cases: other fluorescence titration
[1] = target: FIH-Gln239 → Ala variant (human)
[2] = target: FIH-Gln239 → Asn variant (human)
[3] = target: FIH-Gln239 → Glu variant (human)
[4] = target: FIH-Gln239 → His variant (human)

B1: 39-mer CTAD peptide (C-terminal activation domain of human HIF1α, HIF1α 788–826, Cys800 → Ala) (peptide)
peptide: DESGLPQLTSYDAEVNAPIQGSRNLLQGEELLRALDQVN
A Kd [1] of 100 µM, a Kd [2] of 98 µM and a Kd [3] of 75 µM were found for B1 in this work. For the same binder, the Kd [4] was 64 µM.
